The source of these data is patent US20260217843A1.

One test addresses C1q. The test can be described thus: SPR (Biacore 8K+), antibody captured by anti-human IgG Fc, C1q injected at 25 nM, mean response.
Test [1] addresses cynomolgus FcRn (cynomolgus) (UniProt Q8SPV9). As to the kind of experiment: SPR (Biacore 8K+), antibody captured by anti-human kappa, cynomolgus FcRn injected, pH 5.8; pH 5.8. A general note: In SPR one partner is held on a chip, and binding of the other changes the refractive index at the surface.
The target in a further test is human FcRn (human) (UniProt P55899). As to the kind of experiment: SPR (Biacore 8K+), antibody captured by anti-human kappa, human FcRn injected, pH 5.8; pH 5.8.
human FcRn (human), sequence (P55899 24-297 limits assumed, form in doubt, chain 1 of 2): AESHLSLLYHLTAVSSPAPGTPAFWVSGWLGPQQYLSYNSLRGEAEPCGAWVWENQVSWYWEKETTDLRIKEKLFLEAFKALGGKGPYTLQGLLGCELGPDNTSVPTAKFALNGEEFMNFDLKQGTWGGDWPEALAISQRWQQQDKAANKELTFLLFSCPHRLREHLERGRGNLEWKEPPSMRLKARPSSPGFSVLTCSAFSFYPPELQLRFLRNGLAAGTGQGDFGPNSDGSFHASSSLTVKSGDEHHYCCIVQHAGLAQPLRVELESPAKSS
human FcRn (human), sequence (chain, as listed by the source limits assumed, form in doubt, chain 2 of 2): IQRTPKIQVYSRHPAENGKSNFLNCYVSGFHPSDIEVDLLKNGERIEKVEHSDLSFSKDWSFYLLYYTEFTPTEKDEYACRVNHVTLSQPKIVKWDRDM

C1q, sequence (P02745 23-245, chain 1 of 3): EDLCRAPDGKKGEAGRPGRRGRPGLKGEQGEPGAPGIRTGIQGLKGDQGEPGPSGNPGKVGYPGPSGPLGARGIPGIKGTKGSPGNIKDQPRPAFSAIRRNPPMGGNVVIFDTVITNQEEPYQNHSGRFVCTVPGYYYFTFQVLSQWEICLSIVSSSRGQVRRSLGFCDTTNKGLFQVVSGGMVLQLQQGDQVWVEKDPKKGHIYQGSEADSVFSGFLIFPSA
C1q, sequence (P02746 28-253, chain 2 of 3, further chain): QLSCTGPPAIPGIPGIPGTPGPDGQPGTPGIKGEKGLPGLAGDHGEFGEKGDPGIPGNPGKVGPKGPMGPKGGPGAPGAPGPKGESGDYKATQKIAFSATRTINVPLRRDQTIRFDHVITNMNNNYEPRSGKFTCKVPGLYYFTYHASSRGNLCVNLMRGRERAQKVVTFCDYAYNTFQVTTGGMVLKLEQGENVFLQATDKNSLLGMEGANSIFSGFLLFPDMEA
C1q, sequence (P02747 29-245, chain 3 of 3, further chain): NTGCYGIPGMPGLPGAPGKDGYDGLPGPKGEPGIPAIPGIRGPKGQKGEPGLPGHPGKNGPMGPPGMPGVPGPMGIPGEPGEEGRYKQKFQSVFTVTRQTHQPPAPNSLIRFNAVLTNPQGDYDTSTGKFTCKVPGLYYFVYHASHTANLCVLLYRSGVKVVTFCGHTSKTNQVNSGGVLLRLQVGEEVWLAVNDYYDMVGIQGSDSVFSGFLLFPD

Substance Rituximab, an anti-CD20 antibody registered an RU at 25 nM C1q with C1q of 386 RU.

“positive control based on the sequences of the anti-hOX40L antibody amlitelimab”: the results for the Kd (in test [1]; in the test with human FcRn (human)) were 0.926 µM and 1.11 µM, respectively.

For orientation: Kd means the equilibrium constant for the complex coming apart. Low values mean higher affinity, high ones lower affinity.
